Assay results: PMC10397247
Each block holds one binder with its values, some of them ahead of it.

Tests used:
4H496-bA = target: T1, 4H496-bA; assay: two-hybrid library CCNG1;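 further: natural log of median RNA to DNA barcode read ratio; higher means stronger binding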
T1 chain: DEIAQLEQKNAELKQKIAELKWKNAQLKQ

4H3632-bA = target: T2, 4H3632-bA; assay: two-hybrid library CCNG1;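 further: natural log of median RNA to DNA barcode read ratio; higher means stronger binding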
T2 chain: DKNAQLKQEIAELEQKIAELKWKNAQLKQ

4H918-bN = target: T3, 4H918-bN; assay: two-hybrid library CCNG1;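 further: natural log of median RNA to DNA barcode read ratio; higher means stronger binding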
T3 chain: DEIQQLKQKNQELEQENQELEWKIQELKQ

4H491-bA = target: T4, 4H491-bA; assay: two-hybrid library CCNG1;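 further: natural log of median RNA to DNA barcode read ratio; higher means stronger binding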
T4 chain: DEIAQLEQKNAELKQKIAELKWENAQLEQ

4H342-bA = target: T5, 4H342-bA; assay: two-hybrid library CCNG1
T5 chain: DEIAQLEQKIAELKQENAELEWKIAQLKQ

4H48-bA = target: T6, 4H48-bA; assay: two-hybrid library CCNG1
T6 chain: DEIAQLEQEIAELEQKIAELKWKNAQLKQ

O3 = target: T7, O3; assay: two-hybrid library CCNG1
T7 chain: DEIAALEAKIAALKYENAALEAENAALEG

P5bH1 = target: T8, P5bH1; assay: two-hybrid library CCNG1
T8 chain: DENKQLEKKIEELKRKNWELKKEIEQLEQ

P4bH1 = target: T9, P4bH1; assay: two-hybrid library CCNG1
T9 chain: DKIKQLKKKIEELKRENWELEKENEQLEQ

P8bH1 = target: T10, P8bH1; assay: two-hybrid library CCNG1
T10 chain: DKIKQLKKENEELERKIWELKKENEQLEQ

P3bH1 = target: T11, P3bH1; assay: two-hybrid library CCNG1
T11 chain: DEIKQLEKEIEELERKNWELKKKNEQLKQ

P9bH1 = target: T12, P9bH1; assay: two-hybrid library CCNG1
T12 chain: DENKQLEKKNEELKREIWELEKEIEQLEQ

P7bH1 = target: T13, P7bH1; assay: two-hybrid library CCNG1
T13 chain: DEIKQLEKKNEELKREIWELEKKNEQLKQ

P6bH1 = target: T14, P6bH1; assay: two-hybrid library CCNG1
T14 chain: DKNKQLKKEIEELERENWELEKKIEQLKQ

4H2702-bH = target: T15, 4H2702-bH; assay: two-hybrid library CCNG1
T15 chain: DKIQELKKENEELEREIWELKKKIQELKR

4H855-bH = target: T16, 4H855-bH; assay: two-hybrid library CCNG1
T16 chain: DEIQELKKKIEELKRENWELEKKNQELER

4H953-bH = target: T17, 4H953-bH; assay: two-hybrid library CCNG1
T17 chain: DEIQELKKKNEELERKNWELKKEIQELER

4H3427-bH = target: T18, 4H3427-bH; assay: two-hybrid library CCNG1
T18 chain: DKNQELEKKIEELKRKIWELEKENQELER

4H968-bH = target: T19, 4H968-bH; assay: two-hybrid library CCNG1
T19 chain: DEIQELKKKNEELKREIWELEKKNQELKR

4H3354-bH = target: T20, 4H3354-bH; assay: two-hybrid library CCNG1
T20 chain: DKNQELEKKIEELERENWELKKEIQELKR

4H2673-bH = target: T21, 4H2673-bH; assay: two-hybrid library CCNG1
T21 chain: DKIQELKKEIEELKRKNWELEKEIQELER

4H797-bH = target: T22, 4H797-bH; assay: two-hybrid library CCNG1
T22 chain: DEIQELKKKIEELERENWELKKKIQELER

4H2627-bH = target: T23, 4H2627-bH; assay: two-hybrid library CCNG1
T23 chain: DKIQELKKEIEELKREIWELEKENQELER

4H2586-bH = target: T24, 4H2586-bH; assay: two-hybrid library CCNG1
T24 chain: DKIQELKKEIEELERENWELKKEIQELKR

4H3926-bH = target: T25, 4H3926-bH; assay: two-hybrid library CCNG1
T25 chain: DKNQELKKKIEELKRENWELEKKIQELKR

4H754-bH = target: T26, 4H754-bH; assay: two-hybrid library CCNG1
T26 chain: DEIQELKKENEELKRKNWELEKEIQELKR

4H3112-bH = target: T27, 4H3112-bH; assay: two-hybrid library CCNG1
T27 chain: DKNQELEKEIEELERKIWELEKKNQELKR

4H346-bH = target: T28, 4H346-bH; assay: two-hybrid library CCNG1
T28 chain: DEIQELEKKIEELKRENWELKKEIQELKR

4H780-bH = target: T29, 4H780-bH; assay: two-hybrid library CCNG1
T29 chain: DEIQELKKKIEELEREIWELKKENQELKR

4H918-bH = target: T30, 4H918-bH; assay: two-hybrid library CCNG1
T30 chain: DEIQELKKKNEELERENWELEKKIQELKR

4H683-bH = target: T31, 4H683-bH; assay: two-hybrid library CCNG1
T31 chain: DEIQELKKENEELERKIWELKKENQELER

4H4073-bH = target: T32, 4H4073-bH; assay: two-hybrid library CCNG1
T32 chain: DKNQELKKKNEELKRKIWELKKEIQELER

4H3010-bH = target: T33, 4H3010-bH; assay: two-hybrid library CCNG1
T33 chain: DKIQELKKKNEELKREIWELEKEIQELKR

4H457-bH = target: T34, 4H457-bH; assay: two-hybrid library CCNG1
T34 chain: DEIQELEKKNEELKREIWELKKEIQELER

4H370-bN = target: T35, 4H370-bN; assay: two-hybrid library CCNG1
T35 chain: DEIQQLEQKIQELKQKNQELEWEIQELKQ

4H575-bH = target: T36, 4H575-bH; assay: two-hybrid library CCNG1
T36 chain: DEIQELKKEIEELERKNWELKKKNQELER

4H249-AA = target: T37, 4H249-AA; assay: two-hybrid library CCmax; conditions: mean of both orientations
T37 chain: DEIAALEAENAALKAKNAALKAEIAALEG

4H2774-AA = target: T38, 4H2774-AA; assay: two-hybrid library CCmax; conditions: mean of both orientations
T38 chain: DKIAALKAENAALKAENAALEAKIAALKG

4H3049-AA = target: T39, 4H3049-AA; assay: two-hybrid library CCmax; conditions: mean of both orientations
T39 chain: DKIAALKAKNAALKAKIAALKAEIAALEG

4H432-AA = target: T40, 4H432-AA; assay: two-hybrid library CCmax; conditions: mean of both orientations
T40 chain: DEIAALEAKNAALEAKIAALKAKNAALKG

4H2903-AA = target: T41, 4H2903-AA; assay: two-hybrid library CCmax; conditions: mean of both orientations
T41 chain: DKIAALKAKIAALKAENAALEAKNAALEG

4H380-AA = target: T42, 4H380-AA; assay: two-hybrid library CCmax; conditions: mean of both orientations
T42 chain: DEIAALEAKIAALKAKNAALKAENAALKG

4H3629-AA = target: T43, 4H3629-AA; assay: two-hybrid library CCmax; conditions: mean of both orientations
T43 chain: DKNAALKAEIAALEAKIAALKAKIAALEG

4H2947-AA = target: T44, 4H2947-AA; assay: two-hybrid library CCmax; conditions: mean of both orientations
T44 chain: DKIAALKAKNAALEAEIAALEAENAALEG

4H2604-AA = target: T45, 4H2604-AA; assay: two-hybrid library CCmax; conditions: mean of both orientations
T45 chain: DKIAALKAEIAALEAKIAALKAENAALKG

4H446-AA = target: T46, 4H446-AA; assay: two-hybrid library CCmax; conditions: mean of both orientations
T46 chain: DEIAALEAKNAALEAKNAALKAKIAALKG

4H341-AA = target: T47, 4H341-AA; assay: two-hybrid library CCmax; conditions: mean of both orientations
T47 chain: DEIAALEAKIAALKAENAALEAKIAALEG

4H63-AA = target: T48, 4H63-AA; assay: two-hybrid library CCmax; conditions: mean of both orientations
T48 chain: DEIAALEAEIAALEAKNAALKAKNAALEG

4H3094-AA = target: T49, 4H3094-AA; assay: two-hybrid library CCmax; conditions: mean of both orientations
T49 chain: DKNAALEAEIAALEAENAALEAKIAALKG

4H1878-AA = target: T50, 4H1878-AA; assay: two-hybrid library CCmax; conditions: mean of both orientations
T50 chain: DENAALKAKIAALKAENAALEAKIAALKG

4H2580-AA = target: T51, 4H2580-AA; assay: two-hybrid library CCmax; conditions: mean of both orientations
T51 chain: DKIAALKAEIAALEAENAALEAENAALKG

4H3777-AA = target: T52, 4H3777-AA; assay: two-hybrid library CCmax; conditions: mean of both orientations
T52 chain: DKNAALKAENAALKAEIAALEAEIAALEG

4H3915-AA = target: T53, 4H3915-AA; assay: two-hybrid library CCmax; conditions: mean of both orientations
T53 chain: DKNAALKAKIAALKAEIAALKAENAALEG

4H1593-AA = target: T54, 4H1593-AA; assay: two-hybrid library CCmax
T54 chain: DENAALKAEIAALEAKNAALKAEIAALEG

4H2961-AA = target: T55, 4H2961-AA; assay: two-hybrid library CCmax; conditions: mean of both orientations
T55 chain: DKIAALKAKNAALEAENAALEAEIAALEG

4H3974-AA = target: T56, 4H3974-AA; assay: two-hybrid library CCmax; conditions: mean of both orientations
T56 chain: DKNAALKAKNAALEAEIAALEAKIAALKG

4H324-AA = target: T57, 4H324-AA; assay: two-hybrid library CCmax; conditions: mean of both orientations
T57 chain: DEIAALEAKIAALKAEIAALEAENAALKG

4H2760-AA = target: T58, 4H2760-AA; assay: two-hybrid library CCmax; conditions: mean of both orientations
T58 chain: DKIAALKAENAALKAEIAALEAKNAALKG

4H2621-AA = target: T59, 4H2621-AA; assay: two-hybrid library CCmax; conditions: mean of both orientations
T59 chain: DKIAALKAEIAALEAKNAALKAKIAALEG

4H3449-AA = target: T60, 4H3449-AA; assay: two-hybrid library CCmax; conditions: mean of both orientations
T60 chain: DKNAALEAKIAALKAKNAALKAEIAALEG

4H3619-AA = target: T61, 4H3619-AA; assay: two-hybrid library CCmax; conditions: mean of both orientations
T61 chain: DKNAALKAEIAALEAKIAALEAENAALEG

4H235-AA = target: T62, 4H235-AA; assay: two-hybrid library CCmax; conditions: mean of both orientations
T62 chain: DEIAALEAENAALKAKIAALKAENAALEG

interaction score (4H496-bA): 0.728 | interaction score (4H3632-bA): 1.23
B1: 4H3632-bA (peptide)
chain: DKNAQLKQEIAELEQKIAELKWKNAQLKQ

interaction score (4H918-bN): -0.0267 | interaction score (4H496-bA): 2.13 | interaction score (4H491-bA): 1.5 | interaction score (4H3632-bA): 0.725 | interaction score (4H342-bA): 1.64 | interaction score (4H48-bA): 0.0458 | interaction score (O3): -1.6
B2: 4H342-bA (peptide)
chain: DEIAQLEQKIAELKQENAELEWKIAQLKQ

interaction score (P5bH1): 1.1 | interaction score (P4bH1): 1.13 | interaction score (P8bH1): 0.173 | interaction score (P3bH1): -0.241 | interaction score (P9bH1): -0.408 | interaction score (P7bH1): -0.271 | interaction score (P6bH1): 0.419
B3: P3bH1 (peptide)
chain: DEIKQLEKEIEELERKNWELKKKNEQLKQ

interaction score (4H2702-bH): 0.0111 | interaction score (4H855-bH): 0.679 | interaction score (4H953-bH): 0.313 | interaction score (4H3427-bH): 0.762 | interaction score (4H968-bH): -0.864 | interaction score (4H3354-bH): 0.825 | interaction score (4H2673-bH): 1.76 | interaction score (4H797-bH): 0.65 | interaction score (4H2627-bH): 0.688 | interaction score (4H2586-bH): 1.34 | interaction score (4H3926-bH): 1.73 | interaction score (4H754-bH): -0.599 | interaction score (4H3112-bH): -1.96 | interaction score (4H346-bH): 0.563 | interaction score (4H780-bH): -1.12 | interaction score (4H918-bH): -0.131 | interaction score (4H683-bH): 0.126 | interaction score (4H4073-bH): 0.357 | interaction score (4H3010-bH): 0.779 | interaction score (4H457-bH): -0.749 | interaction score (4H370-bN): 0.548 | interaction score (4H575-bH): 0.499
B4: 4H2586-bH (peptide)
chain: DKIQELKKEIEELERENWELKKEIQELKR

interaction score (4H249-AA): -1.77 | interaction score (4H2774-AA): -0.0172 | interaction score (4H3049-AA): -0.661 | interaction score (4H432-AA): -0.391 | interaction score (4H2903-AA): -0.456 | interaction score (4H380-AA): -1.5 | interaction score (4H3629-AA): -0.594 | interaction score (4H2947-AA): -1.37 | interaction score (4H2604-AA): 0.383 | interaction score (4H446-AA): -1.84 | interaction score (4H341-AA): 2.13 | interaction score (4H63-AA): -1.97 | interaction score (4H3094-AA): 1.88 | interaction score (4H1878-AA): 2.3 | interaction score (4H2580-AA): -0.97 | interaction score (4H3777-AA): -1.54 | interaction score (4H3915-AA): -1.62 | interaction score (4H1593-AA): -1.04 | interaction score (4H2961-AA): -1.89 | interaction score (4H3974-AA): -1.15 | interaction score (4H324-AA): -1.58 | interaction score (4H2760-AA): -0.517 | interaction score (4H2621-AA): -0.899 | interaction score (4H3449-AA): -1.62 | interaction score (4H3619-AA): -1.38 | interaction score (4H235-AA): 0.603
B5: 4H1593-AA (peptide)
chain: DENAALKAEIAALEAKNAALKAEIAALEG
